In US20180230233A1 (Genentech, published 2018):
Positions count from the first letter of the chain named. In names and notes the source's numbering stands.

B1: hu31A.v11 W100Y (antibody, name in Kabat numbering, V domains shown)
VH: EVQLVESGGGLVQPGGSLRLSCAASGFTFSDYGMVWVRQAPGKGLEWVAFISSGSSTVYYADTMKGRFTISRDNSKNTLYLQMNSLRAEDTAVYYCTRRNYDDYYFDVWGQGTLVTVSS
VL: DIQMTQSPSSLSASVGDRVTITCSASSSVTYMYWYQQKPGKSPKPWIYRTSDLASGVPSRFSGSGSGTDFTLTISSLQPEDFATYYCQHYHSYPLTFGQGTKVEIK
notes: Position 100 is Kabat numbering; also called W100Y variant
B2: hu31A.v11 W100F (antibody, name in Kabat numbering, V domains shown)
VH: B1 VH with Y104F
VL: B1 VL
notes: also called W100F variant
B3: huE104.v10 IgG1 (chimeric light chain) (antibody, V domains shown)
VH: EVQLVESGPGLVKPSETLSLTCTVSRFSLIGYAITWIRQPPGKGLEWIGGISSAATTFYSSWAKSRVTISRDTSKNQVSLKLSSVTAADTAVYYCARDPRGYGAALDRLDLWGQGTLVTVSS
VL: AAVLTQTPASVSAAVGGTVSISCQSIKSVYNNRLGWYQQKPGQPPKLLIYETSILTSGVPSRFKGSGSETQFTLTISDVQADDAATYFCAGGFDRSGDTTFGGGTEVVVK
B4: huE104.v9 IgG1 (chimeric heavy chain) (antibody, V domains shown)
VH: QSLEESGGGLFKPTDTLTLTCTVSRFSLIGYAITWVRQSPENGLEWIGGISSAATTFYSSWAKSRSTITRNTNENTVTLKMTSLTAADTATYFCARDPRGYGAALDRLDLWGQGTLVTVSS
VL: DIQMTQSPSSLSASVGDRVTITCQSIKSVYNNRLGWYQQKPGKAPKLLIYETSILTSGVPSRFSGSGSGTDFTLTISSLQPEDFATYYCAGGFDRSGDTTFGQGTKVEIK
notes: also called E104.v9 chimeric clone
B5: huE104.v4 IgG1 (antibody, V domains shown)
VH: EVQLVESGGGLVQPGGSLRLSCAVSRFSLIGYAITWVRQAPGKGLEWIGGISSAATTFYSSWAKSRSTISRDTSKNTVYLQMNSLRAEDTAVYFCARDPRGYGAALDRLDLWGQGTLVTVSS
VL: B4 VL
B6: huE104.v6 IgG1 (antibody, V domains shown)
VH: B3 VH
VL: B4 VL with I2A, M4L, A44P, G69E, Y88F
B7: huE104.v8 IgG1 (antibody, V domains shown)
VH: B5 VH
VL: B4 VL with I2A, M4L, A44P, G69E, Y88F
B8: huE104.v7 IgG1 (antibody, V domains shown)
VH: B3 VH with I37V, V67S, Y94F
VL: B4 VL with I2A, M4L, A44P, G69E, Y88F
B9: huE104.v3 IgG1 (antibody, V domains shown)
VH: B3 VH with I37V, V67S, Y94F
VL: B4 VL
B10: huE104.v5 IgG1 (antibody, V domains shown)
VH: B3 VH with R71V, V78F
VL: B4 VL with I2A, M4L, A44P, G69E, Y88F
B11: huE104.v11 IgG1 (antibody, V domains shown)
VH: B3 VH with R71V
VL: B4 VL
notes: also called v11 (of huE104)
B12: huE104.v12 IgG1 (antibody, V domains shown)
VH: B3 VH with V78F
VL: B4 VL
notes: also called v12 (of huE104)
B13: hu31A.v14 IgG1 (antibody, V domains shown)
VH: B1 VH with Y94V, N100D, Y101N, D102Y, Y104W
VL: B1 VL
B14: hu31A.v15 IgG1 (antibody, V domains shown)
VH: B1 VH with Y94V, N100D, Y101N, D102Y, Y104W
VL: B1 VL with M4L, F70Y
B15: hu31A.v10 IgG1 (antibody, V domains shown)
VH: B1 VH with Y104W
VL: B1 VL with S42A, P45L, W46L
notes: also called v10 (of hu31A)
B16: hu31A.v3 IgG1 (antibody, V domains shown)
VH: B1 VH with A49G, Y94V, T97A, N100D, Y101N, D102Y, Y104W
VL: B1 VL with M4L, F70Y
notes: also called v3 (of hu31A)
B17: hu31A.v12 IgG1 (antibody, V domains shown)
VH: B1 VH with Y104W
VL: B1 VL with M4L, F70Y
notes: also called v12 (of hu31A)
B18: hu31A.v2 IgG1 (antibody, V domains shown)
VH: B1 VH with A49G, Y94V, T97A, N100D, Y101N, D102Y, Y104W
VL: B1 VL
notes: also called v2 (of hu31A)
B19: hu31A.v13 IgG1 (antibody, V domains shown)
VH: B1 VH with Y94V, N100D, Y101N, D102Y, Y104W
VL: B1 VL with S42A, P45L, W46L
B20: hu31A.v8 IgG1 (antibody, V domains shown)
VH: B1 VH with D31S, Y32F, V35H, Y94V, T97A, N100D, Y101N, D102Y, Y104W
VL: B1 VL
notes: also called v8 (of hu31A)
B21: hu31A.v9 IgG1 (antibody, V domains shown)
VH: B1 VH with D31S, Y32F, V35H, Y94V, T97A, N100D, Y101N, D102Y, Y104W
VL: B1 VL with M4L, F70Y
notes: also called v9 (of hu31A)
B22: hu31A.v4 IgG1 (antibody, V domains shown)
VH: B1 VH with Y94V, T97A, N100D, Y101N, D102Y, Y104W
VL: B1 VL with S42A, P45L, W46L
notes: also called v4 (of hu31A)
B23: hu31A.v6 IgG1 (antibody, V domains shown)
VH: B1 VH with Y94V, T97A, N100D, Y101N, D102Y, Y104W
VL: B1 VL with M4L, F70Y
notes: also called v6 (of hu31A)
B24: hu31A.v5 IgG1 (antibody, V domains shown)
VH: B1 VH with Y94V, T97A, N100D, Y101N, D102Y, Y104W
VL: B1 VL
notes: also called v5 (of hu31A)
B25: hu31A.v1 IgG1 (antibody, V domains shown)
VH: B1 VH with A49G, Y94V, T97A, N100D, Y101N, D102Y, Y104W
VL: B1 VL with S42A, P45L, W46L
notes: also called v1 (of hu31A)
B26: hu31A.v7 IgG1 (antibody, V domains shown)
VH: B1 VH with D31S, Y32F, V35H, Y94V, T97A, N100D, Y101N, D102Y, Y104W
VL: B1 VL with S42A, P45L, W46L
notes: also called v7 (of hu31A)
B27: rabbit anti-tryptase monoclonal antibody E104 (antibody, V domains shown)
VH: B4 VH
VL: B3 VL with A81C
notes: Rabbit hybridoma antibody with rabbit kappa light chain; also called rab.E104; clone E104
B28: hu31A.v11 W100R (antibody, name in Kabat numbering, V domains shown)
VH: B1 VH with Y104R
VL: B1 VL
notes: also called W100R variant
B29: hu31A.v11 W100V (antibody, name in Kabat numbering, V domains shown)
VH: B1 VH with Y104V
VL: B1 VL
notes: Position 100 is Kabat numbering; also called W100V variant
B30: hu31A.v11 W100L (antibody, name in Kabat numbering, V domains shown)
VH: B1 VH with Y104L
VL: B1 VL
notes: also called W100L variant

target: T1, recombinant human tryptase beta 1 tetramer (wild type, active) (human, UniProt Q15661 31-275); experiment: cell-based or functional assay
T1 sequence (Q15661 31-275): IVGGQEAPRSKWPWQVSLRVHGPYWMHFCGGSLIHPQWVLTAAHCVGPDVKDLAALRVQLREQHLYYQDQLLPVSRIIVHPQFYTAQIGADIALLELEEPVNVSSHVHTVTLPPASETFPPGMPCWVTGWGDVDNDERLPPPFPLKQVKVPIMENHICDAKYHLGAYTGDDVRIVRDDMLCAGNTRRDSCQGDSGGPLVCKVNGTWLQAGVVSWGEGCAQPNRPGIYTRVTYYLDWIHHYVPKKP

| IC50 as fold increase compared to hu31A.v11 wild type | Binder |
| --- | --- |
| 3.46 fold | B1 |
| 2.5 fold | B2 |

target: T2, recombinant His-tagged human tryptase beta 1 monomer (human, UniProt Q15661 31-275); experiment: SPR (BIAcore T200); IgG1 captured by anti-human Fc, His-tagged monomer injected
T2 construct: also called His6-tagged tryptase monomer; human tryptase b1 monomer
T2 sequence (Q15661 other isoform, or with tags, fused parts or gaps): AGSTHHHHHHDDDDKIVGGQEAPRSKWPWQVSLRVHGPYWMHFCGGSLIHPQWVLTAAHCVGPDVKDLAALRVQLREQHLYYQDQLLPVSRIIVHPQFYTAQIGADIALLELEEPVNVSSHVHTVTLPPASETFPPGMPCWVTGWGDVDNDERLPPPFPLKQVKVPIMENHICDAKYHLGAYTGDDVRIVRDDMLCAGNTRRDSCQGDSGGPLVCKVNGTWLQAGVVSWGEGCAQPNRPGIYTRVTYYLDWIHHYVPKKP
Protocol: (§1) The assay can use a BIAcore® T200 or an equivalent device. Briefly, BIAcore® Series S CM5 sensor chips (or equivalent sensor chips) are immobilized with monoclonal mouse anti-human IgG (Fc) antibody and anti-tryptase antibodies are subsequently captured on the flow cell. Serial 3-fold dilutions of the human tryptase beta 1 monomer are injected at a flow rate of 30 μl/min. Each sample is analyzed with 3 min association and 10 min dissociation. The assay is performed at 25° C. After each injection, the chip is regenerated using 3 M MgCl₂. Binding response is corrected by subtracting the response units (RU) from a flow cell capturing an irrelevant IgG at similar density. A 1:1 Languir model of simultaneous fitting of kₒₙ and koff is used for kinetics analysis.
(§2) In this experiment, all the humanized variants were expressed as IgG by transient transfection of 293 cells. IgG was purified with protein G affinity chromatography. The affinity of each variant for recombinant His-tagged human tryptase beta 1 monomer (SEQ ID NO: 128) was determined by SPR analysis using a BIAcore® T200. BIAcore® Series S CM5 sensor chips were immobilized with monoclonal mouse anti-human IgG (Fc) antibody (Human antibody capture kit from GE Healthcare) and anti-tryptase variants were subsequently captured on each flow cell. Serial 3-fold dilutions of the human tryptase beta 1 monomer were injected at a flow rate of 30 μl/min. Each sample was analyzed with 3 min association and 10 min dissociation. After each injection, the chip was regenerated using 3 M MgCl₂. Binding response was corrected by subtracting the response units (RU) from a flow cell capturing an irrelevant IgG at similar density. A 1:1 Languir model of simultaneous fitting of kₒₙ and koff was used for kinetics analysis.

| Kd | Binder |
| --- | --- |
| 0.26 nM | B3 |
| 0.24 nM | B4 |
| 0.44 nM | B5 |
| 0.14 nM | B6 |
| 0.24 nM | B7 |
| 0.25 nM | B8 |
| 0.21 nM | B9 |
| 0.18 nM | B10 |
| 0.32 nM | B11 |
| 0.12 nM | B12 |
| 1.34 nM | B13 |
| 1.32 nM | B14 |
| 1.19 nM | B15 |
| 0.79 nM | B16 |
| 0.43 nM | B17 |
| 0.74 nM | B18 |
| 9.65 nM | B19 |
| 0.94 nM | B20 |
| 0.94 nM | B21 |
| 11.8 nM | B22 |
| 1.65 nM | B23 |
| 1.68 nM | B24 |
| 4.04 nM | B25 |
| 2.06 nM | B26 |

target: T1, recombinant human tryptase beta 1 …; experiment: ELISA on biotinylated human tryptase beta 1 captured on NeutrAvidin, with heparin to keep the tetramer

| binding result | Binder |
| --- | --- |
| binds | B27 |

target: T2, recombinant His-tagged human tryptase …; experiment: SPR, tryptase beta 1 monomer

| fold faster off-rate (Koff) compared to wild-type hu31A.v11 | Binder |
| --- | --- |
| ~100 fold | B2 |

target: T2, recombinant His-tagged human tryptase …; experiment: SPR, tryptase beta 1 monomer; remark: another data set of the same source
Protocol: as §1, §2

| KD as fold increase compared to hu31A.v11 wild type | Binder |
| --- | --- |
| 234 fold | B1 |
| 54 fold | B28 |
| 821 fold | B29 |
| 2410 fold | B30 |
| 80 fold | B2 |
